The target of this test is Prunus persica WEEP protein (PpeWEEP), 6xHis-MBP-PpeWEEP-StrepTagII fusion protein (Prunus persica (peach)). The experiment in a line: SEC.

For the substance “Prunus persica WEEP protein (PpeWEEP), 6xHis-MBP-PpeWEEP-StrepTagII fusion protein (natural protein)”, the stoichiometry N (usually a count of units in the complex or per binding partner) amounted to 8.7 mer.

For the origin of these results see article PMC10245973.
